# Experimental data as given in patent US20210284706A1 (published 2021).
# B1: human NKG2D (Example 21) (receptor)
# chain: NSLFNQEVQIPLTESYCGPCPKNWICYKNNCYQFFDESKNWYESQASCMSQNASLLKVYSKEDQDLLKLVKSYHWMGLVHIPTNGSWQWEDGSILSPNLLTIIEMQKGDCALYASSFKGYIENCSTPNTYICMQRTV
# Molecular target: OMCP
# Assay: method not stated
binder,measurement,value
B1,Kd,0.1 nM
